Experimental data reported in patent US20180311371A1 (Hoffmann-La Roche, published 2018).
Read-outs that look alike come from different tables or passages of the source.

B1: anti-TPBG 097 Fab-PE fusion protein (refolded from E. coli inclusion bodies) (Fab)
heavy: MEVQLLESGGGLAQPGGSLRLSCAASGFTFNNDAMTWVRQAPGKGLEWVSAISGSGGSTYYADSVKGRFTISRDNSKNTLYLQMNSLRAEDTAVYYCAKGGSWGDWYYYFYPMDVWGQGTTVTVSSASTKGPSVFPLAPSSKSTSGGTAALGCLVKDYFPEPVTVSWNSGALTSGVHTFPAVLQSSGLYSLSSVVTVPSSSLGTQTYICNVNHKPSNTKVDKKVEPKSCDKTHKASGGRHRQPRGWEQLGGGGGSPTGAEFLGDGGDVSFSTRGTQNWTVERLLQAHAQLEERGYVFVGYHGTFLEAAQSIVFGGVAARSQDLAAIWAGFYIAGDPALAYGYAQDQEPDAAGRIRNGALLRVYVPASSLPGFYRTSLTLAAPEAAGEVERLIGHPLPLALDAITGPEEEGGRLETILGWPLAERTVVIPSAIPTDPRNVGGDLDPSSIPDKEQAISALPDYASQPGKPPREDLK
light: not shown
notes: also called Fab-PE comprising antibody 097
B2: anti-TPBG 051 Fab-PE fusion protein (refolded from E. coli inclusion bodies) (Fab)
heavy: MEVQLLESGGGLLQPGGSLRLSCAASGFTFSIYWMTWVRQAPGKGLEWVSAISGSGGSTYYADSVKGRFTISRDNSKNTLYLQMNSLRAEDTAVYYCAKDYYSNVYWGQGTLVTVSSASTKGPSVFPLAPSSKSTSGGTAALGCLVKDYFPEPVTVSWNSGALTSGVHTFPAVLQSSGLYSLSSVVTVPSSSLGTQTYICNVNHKPSNTKVDKKVEPKSCDKTHKASGGRHRQPRGWEQLGGGGGSPTGAEFLGDGGDVSFSTRGTQNWTVERLLQAHAQLEERGYVFVGYHGTFLEAAQSIVFGGVAARSQDLAAIWAGFYIAGDPALAYGYAQDQEPDAAGRIRNGALLRVYVPASSLPGFYRTSLTLAAPEAAGEVERLIGHPLPLALDAITGPEEEGGRLETILGWPLAERTVVIPSAIPTDPRNVGGDLDPSSIPDKEQAISALPDYASQPGKPPREDLK
light: MDIQMTQSPSSVSASVGDRVTITCRASQGIYSWLAWYQQKPGKAPKLLIYAASSLQSGVPSRFSGSGSGTDFTLTISSLQPEDFATYYCQQSDSPPYTFGQGTKLEIKRTVAAPSVFIFPPSDEQLKSGTASVVCLLNNFYPREAKVQWKVDNALQSGNSQESVTEQDSKDSTYSLSSTLTLSKADYEKHKVYACEVTHQGLSSPVTKSFNRGEC
notes: also called Fab-PE comprising antibody 051
B3: anti-TPBG 091 Fab-PE fusion protein (refolded from E. coli inclusion bodies) (Fab)
heavy: MEVHLLESGGGLVHPGGSLRLSCAASGFTFRSDAMHWVRQAPGKGLEWVSGVSGSGGSPYYADSVKGRFTISRDDSKTTLYLQMNSLRAEDTAVYYCATGGSIAGSYYYYPMDVWGQGTTVTVSSASTKGPSVFPLAPSSKSTSGGTAALGCLVKDYFPEPVTVSWNSGALTSGVHTFPAVLQSSGLYSLSSVVTVPSSSLGTQTYICNVNHKPSNTKVDKKVEPKSCDKTHKASGGRHRQPRGWEQLGGGGGSPTGAEFLGDGGDVSFSTRGTQNWTVERLLQAHAQLEERGYVFVGYHGTFLEAAQSIVFGGVAARSQDLAAIWAGFYIAGDPALAYGYAQDQEPDAAGRIRNGALLRVYVPASSLPGFYRTSLTLAAPEAAGEVERLIGHPLPLALDAITGPEEEGGRLETILGWPLAERTVVIPSAIPTDPRNVGGDLDPSSIPDKEQAISALPDYASQPGKPPREDLK
light: not shown
notes: also called Fab-PE comprising antibody 091

Tests used:
[1] = target: T1, huTPBG (recombinant human TPBG immobilised on the Biacore chip) (human, UniProt Q13641 32-355, limits assumed); test: SPR Biacore T200; huTPBG amine-coupled, Fab-PE injected; pH 7.4
T1 construct: also called human TPBG antigen
T1 sequence: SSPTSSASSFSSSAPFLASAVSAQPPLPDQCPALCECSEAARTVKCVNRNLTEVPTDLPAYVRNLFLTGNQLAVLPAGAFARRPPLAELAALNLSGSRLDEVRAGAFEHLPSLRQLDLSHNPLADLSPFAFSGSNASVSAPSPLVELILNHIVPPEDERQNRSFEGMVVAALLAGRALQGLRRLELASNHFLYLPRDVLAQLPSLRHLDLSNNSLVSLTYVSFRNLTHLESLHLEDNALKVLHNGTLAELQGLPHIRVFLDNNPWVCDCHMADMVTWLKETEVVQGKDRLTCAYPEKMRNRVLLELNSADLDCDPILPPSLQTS

[2] = target: T2, human TPBG (trophoblast glycoprotein), full length, cell surface expressed (human, UniProt Q13641 32-420); test: flow cytometry on CHO-K1 stably expressing human TPBG; Fab-PE fusion
T2 construct: On MCF7, H1975 and BxPC-3 tumour cells, on SW620 clone 4 and on CHO-K1 cells transfected with full length human TPBG; also called huTPBG; 5T4
T2 sequence: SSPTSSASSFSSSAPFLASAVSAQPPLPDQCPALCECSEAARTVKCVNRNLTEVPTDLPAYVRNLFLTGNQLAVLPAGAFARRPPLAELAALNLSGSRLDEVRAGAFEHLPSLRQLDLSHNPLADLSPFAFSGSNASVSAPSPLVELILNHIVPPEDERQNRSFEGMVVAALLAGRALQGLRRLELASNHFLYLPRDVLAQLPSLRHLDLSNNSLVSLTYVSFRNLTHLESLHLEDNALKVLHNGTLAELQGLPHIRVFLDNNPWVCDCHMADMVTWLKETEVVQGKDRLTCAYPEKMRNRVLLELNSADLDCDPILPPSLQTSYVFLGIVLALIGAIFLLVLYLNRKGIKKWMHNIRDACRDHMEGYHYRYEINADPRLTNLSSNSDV

[3] = target: T1, huTPBG (recombinant human TPBG …); test: SPR Biacore T200; huTPBG amine-coupled, Fab-PE injected; pH 5.5
[4] = target: T2, human TPBG (trophoblast glycoprotein), …; test: cell-based or functional assay
[5] = target: T2, human TPBG (trophoblast glycoprotein), …; test: cell-based or functional assay; remark: listed apart in the source
[6] = target: T2, human TPBG (trophoblast glycoprotein), …
[7] = target: T2, human TPBG (trophoblast glycoprotein), …; test: cell-based or functional assay; remark: listed apart in the source
[8] = target: T3, minipig TPBG, full length, cell surface expressed on CHO-K1 cells (minipig); test: cell-based or functional assay
T3 chain: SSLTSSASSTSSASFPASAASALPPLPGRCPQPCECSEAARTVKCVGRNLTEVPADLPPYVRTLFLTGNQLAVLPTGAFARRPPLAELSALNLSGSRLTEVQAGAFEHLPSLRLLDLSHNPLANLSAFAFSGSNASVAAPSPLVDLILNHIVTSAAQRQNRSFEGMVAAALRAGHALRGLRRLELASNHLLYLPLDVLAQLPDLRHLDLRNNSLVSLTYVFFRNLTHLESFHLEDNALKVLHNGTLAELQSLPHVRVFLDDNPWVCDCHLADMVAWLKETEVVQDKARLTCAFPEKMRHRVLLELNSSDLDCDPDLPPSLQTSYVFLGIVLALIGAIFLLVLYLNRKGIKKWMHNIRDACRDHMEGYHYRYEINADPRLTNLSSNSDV

[9] = target: T2, human TPBG (trophoblast glycoprotein), …; test: cell-based or functional assay; remark: listed apart in the source
[10] = target: T3, minipig TPBG, full length, cell surface …; test: flow cytometry on CHO-K1 stably expressing minipig TPBG; Fab-PE fusion
[11] = target: T2, human TPBG (trophoblast glycoprotein), …; test: cell-based or functional assay; remark: listed apart in the source

Binder | Kd [1] [nM] | koff [1] [s⁻¹] | kon [1] [M⁻¹ s⁻¹] | EC50 [2] [nM] | Kd [3] [nM] | koff [3] [s⁻¹] | kon [3] [M⁻¹ s⁻¹] | EC50 protein synthesis inhibition (luciferase), BxPC-3, replicate 1 [4] [nM] | EC50 protein synthesis inhibition (luciferase), BxPC-3, replicate 2 [4] [pM] | X-fold higher potency than Fab-PE fusion protein of H8, H1975, 10 min [5] [fold] | X-fold higher potency than Fab-PE fusion protein of H8, H1975, 30 min [5] [fold] | X-fold higher potency than Fab-PE fusion protein of H8, H1975, 60 min [5] [fold] | X-fold higher potency than Fab-PE fusion protein of H8, H1975, continuous [5] [fold] | EC50 [6] [nM] | EC50 cytotoxicity, Fab-PE fusion, stable CHO-K1 huTPBG [7] [nM] | EC50 cytotoxicity, Fab-PE fusion, stable CHO-K1 pgTPBG [8] [nM] | X-fold lower potency pgTPBG versus huTPBG [8] [fold] | EC50 cytotoxicity, Fab-PE fusion, H1975, replicate 1 [9] [nM] | EC50 cytotoxicity, Fab-PE fusion, H1975, replicate 2 [9] [nM] | EC50 [10] [nM] | also measured
B1 | 1.97 | 0.00121 | 614000 | 5.6 | 7.49 | 0.00605 | 808000 | 0.022 | 8 | 0.9 | 0.9 | 1.1 | 1.1 | 0.64 | 0.04 | 0.14 | 3.4 | 0.013 | 0.013 | 15.4 | EC50 proliferation, H1975, 10 min exposure [11]: 0.211 nM; EC50 proliferation, H1975, 30 min exposure [11]: 0.189 nM; EC50 proliferation, H1975, 60 min exposure [11]: 0.203 nM; EC50 proliferation, H1975, continuous exposure [11]: 0.013 nM
B2 | 0.121 | 3.46e-05 | 286000 | 12.4 | 0.292 | 0.000113 | 386000 | 0.027 | 15 | 1.1 | 1 | 1 | 1.1 | 1.25 | 0.03 | 1.37 | 51.7 | 0.016 | 0.014 | 16.9 | EC50 proliferation, H1975, 10 min exposure [11]: 0.241 nM; EC50 proliferation, H1975, 30 min exposure [11]: 0.204 nM; EC50 proliferation, H1975, 60 min exposure [11]: 0.18 nM; EC50 proliferation, H1975, continuous exposure [11]: 0.014 nM
B3 | 0.461 | 0.000129 | 280000 | 8.5 | 8.89 | 0.00201 | 226000 | 0.014 | 7 | 4 | 3.3 | 4.2 | 3.7 | 0.89 | 0.05 | 0.15 | 3.3 | 0.005 | 0.003 | 10.8 | EC50 proliferation, H1975, 10 min exposure [11]: 0.057 nM; EC50 proliferation, H1975, 30 min exposure [11]: 0.062 nM; EC50 proliferation, H1975, 60 min exposure [11]: 0.043 nM; EC50 proliferation, H1975, continuous exposure [11]: 0.003 nM
